Earlier results, collected in patent US20210330752A1, “FEED SUPPLEMENTS” (OmniGen Research, LLC, priority 2018, published 2021).

Tested on: binding protein

For Insulin-like growth factor-1 [IGF-1], the “IGF-1 in plasma bound to a binding protein” value is given as “more than 99%”.
